Reference: publication doi:10.1101/2022.01.09.475567

Target: NP:WT-C-His (nucleoprotein) (Influenza A virus A/Puerto Rico/8/1934 …, UniProt P03466 1-498)
Test: BLI

Chain of NP:WT-C-His (nucleoprotein) (P03466 whole entry): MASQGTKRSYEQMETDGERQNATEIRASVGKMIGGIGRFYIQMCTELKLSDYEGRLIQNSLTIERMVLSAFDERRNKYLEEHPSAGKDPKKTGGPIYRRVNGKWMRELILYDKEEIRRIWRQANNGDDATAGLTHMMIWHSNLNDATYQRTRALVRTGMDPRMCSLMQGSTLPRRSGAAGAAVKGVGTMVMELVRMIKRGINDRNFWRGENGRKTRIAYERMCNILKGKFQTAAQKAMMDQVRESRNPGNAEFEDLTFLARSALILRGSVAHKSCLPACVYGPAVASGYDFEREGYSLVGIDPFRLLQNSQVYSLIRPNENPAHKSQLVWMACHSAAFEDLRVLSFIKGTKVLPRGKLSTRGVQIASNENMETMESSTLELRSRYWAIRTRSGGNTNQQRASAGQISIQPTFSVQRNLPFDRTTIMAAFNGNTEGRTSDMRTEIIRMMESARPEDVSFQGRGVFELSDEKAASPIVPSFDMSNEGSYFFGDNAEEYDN

Binder: UUUGUUACACACACACACGCUGUG (ssRNA) [24nt ssRNA]
- Kd: 2.48 ± 0.091 nM
